Results on 69 sequences are retold here after the domain aggregation screens of Martell et al. (2025).

Some results are limits rather than exact numbers.

This series is described as follows: soluble fraction after stress (log2 fold change); higher = more stays soluble; pooled small domains, quantitative proteomics. Particulars: stress: pH 4. In short, it runs like this:
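Values are on a log2 scale, where higher means more of the domain stayed soluble after pH 4 stress. They are fold changes in the soluble amount of each domain from pooled custom libraries, measured by high-throughput quantitative proteomics. The fold change is taken to reflect aggregation propensity.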
As for “HMEGLESVVPDLRGKSLKSAAIAAGLSGFALSPEGSGIVYKQSPAPGGRYLKGTLIAVWLRT”, the “soluble fraction (log2)” value was 0.22.
Regarding “HMEGMQATVTQITDEGITVRYVMNGQMVTRTLTSDEVAFVNRGQAVSDLAGAYRVGQTVWIY”, the “soluble fraction (log2)” value was -0.179.
Consider “HMEGNAFASTGDPEADILDITAVHPMRRDAVEELLARSGAEWSLVEGMLRDGKITMAPWEGEEFFIRS”, for which the “soluble fraction (log2)” value is -1.35.
In the case of “HMEGNWGLWAKVPNRFAALTTDKDSALRRFKSKEDGEAWMASHGLKPERFDVLEIPADYKPA”, the “soluble fraction (log2)” value was -0.0509.
Then “HMEGRHFRILYILLNNERVTAPELAEEFGVSVRTIYRDIDTMSAAGIPIYMQGGRKGGIYLLEGY”, with -1.61; and “HMEGSRASMDGQVPGKTSYLEWLARQPAQRQDQVLGAERGRLFRAGEIDLADMFTDKGEWISLERLKQLS”, with -0.284.
For “HMEGVSNLIVSVTRVKVTVDLSQAKVYLSIFPSEQAAFYLNALQQNRFQLKHDLSQLLKNQLRRIPTLQF”, the “soluble fraction (log2)” value was -0.0019.
For “HMEHDYGLSGREREVLELMVQGLVKKEIADRLALSYHTVDNHLRSIYAKLQVHTRGGAVAKALSEHLVPP”, the “soluble fraction (log2)” value was -0.483.
In the case of “HMEHGQWLSEAQGASLAADWLARRRGVLPLNARRHLSGLSDQIARQIEGGLSREAGLYTAHEMMESLDP”, the “soluble fraction (log2)” value is -0.217.
As to “HMEHNDPEVERTMFQGLEALKLQLFEKAFGHFSLLIKLAPDYAEAWNKRATVLYLMGRFKESESDVMRTLE”, the “soluble fraction (log2)” value was -0.0178.
Consider “HMEHQLLHMEKTIFEEIADDYPQLNHTKIRNVLAAFLFTNDDVFKRIADLSGGERGRVSLAKLMLSDA”, for which the “soluble fraction (log2)” value is -0.816.
Regarding “HMEHTPYLTEREADVVRLLVSGLDTAQIAQRLGIKTATVTAHKKHIFLKIGVRNTTQLVAWALIR”, the “soluble fraction (log2)” value is -0.557.
Take “HMEIELHNLALNIKEFRKKNKLSQAELAEKLGVARTTIGYYERAEVEPNIYTLVQLSKLMNRSIDSLLGL”: the “soluble fraction (log2)” value is -0.0684.
Then “HMEIFYGDDRVYTVSLHGQNNFPFRKKTSDFDYGFEDGTGDEEYLRVLDVTLSRLENEQFDLLFFQAGV”, with -0.842; and “HMEIFYSARAWAKLNDLVATRTYLQHLGAIAGRIGRSEGLSPDRIPDGRDGAVNGWPLWVWDRAYAEVS”, with -0.245; and “HMEIGLIRVDSRLIHGQVITKWLNYSKANVIVVVDDELSKDSFMSEIYKASAPNGIIVEILSIDDFMKNT”, with -0.142.
On to “HMEIHIGSLIKEKMEERGLSVSDFAHALHYERTNIYKIFKRSSIDVDLLLRISEVLAYDFLREVYL”, for which the “soluble fraction (log2)” value is -1.9.
Take “HMEINKLIELIGGYKALSEVLNVSKSAISNYKKRGSLPSYAIPIIVKELKSKGISIDLSEFT”: the “soluble fraction (log2)” value was -0.0727.
Regarding “HMEISAIIGNNLQQLRKEQGLSLDQLALKTGVSKAVLSQLENGKANPTINTIWKIATALHVTYSALLEPP”, the “soluble fraction (log2)” value is -0.347.
Then “HMEISEILNPPLVTAMAERYPEVDVSYYRDKYILYYESREHKITDHRRNFEKWLLVESQKEEN”, with -1.66.
“HMEISTENESFSNGLLEHPHYTRPPVWEDLKIPAVLMSGHHGKVAEWRKQQSEALTQERRPDLWEAFG”: the “soluble fraction (log2)” value is -0.0776.
As to “HMEITSSNELKKMISNLINSENKNNPISDSNIVEKLKENDFLVARRTVAKYRKLLGIKNVNQRKE”, the “soluble fraction (log2)” value turned out to be 0.25.
“HMEIYELTDQEQRVLEFIGEGMTNREIAKNMFLAEKTVKNYVSSLLRKLGLERRTQAAAMAVRLSV”: the “soluble fraction (log2)” value is -0.988.
For “HMEKAYVWTDTRTFDVQNYIGKKKSEVKNDQYGFEFLGEGDYVIDQLPRVGEQIEEGQKVKIMLGNQQEI”, the “soluble fraction (log2)” value worked out at 0.117.
Turning to “HMEKDKGTILKEARIKKGLTQEQLANNINYTRQYISKWENNISLPKDIQTLKKISNLLSIPLKELLPEDYL”, the “soluble fraction (log2)” value was 0.0442.
With “HMEKEFLFNGGKVVMNYEADRIQIMHDTKPGQDVITLMKKNGFKWSPFNKAWQRQITANAIYTTKHLINQ”, the “soluble fraction (log2)” value was -0.6.
Then “HMEKGIVSNKTDKGYGFIRSSTGESIFVHINNVGKEAYEQLAKGSRVLFDYEVTDRGKRATKVMLEPSES”, with -0.401; and “HMEKGLQYRRTDRAIMNAFIKLVNQGSFEKLTVQEILDEALVSRNTFYAHYRDIYDLMDALSN”, with -1.37.
For “HMEKIDEDIMDVLKKKAEVSGISLGVLKSIYEKAVKQYKLGHEIGQVKEQYAMQKVNTHLLENK”, the “soluble fraction (log2)” value worked out at 0.169.
On to “HMEKIDYLSIGHRLRAYRIASSLKAEDVAESLGISRAAVYRLEKGEIVKIETLDNLARLLNTSLSSLLG”, for which the “soluble fraction (log2)” value is -1.3.
On to “HMEKIKNLTVTEFNLIANKNPSGSYDRITREALLHIIHKLESSYEAHTDLERKLFYKFRKAKFNAL”, for which the “soluble fraction (log2)” value was -0.715.
Consider “HMEKIYLISDAAKQVNVEAHVLRYWEEELDIPAKRNELGHRYYTQEDIETFRKVKELKAQGIQLKGIKNIL”, for which the “soluble fraction (log2)” value is -1.07.
Turning to “HMEKLLTTRQSQIFELAKRKGYWNIPREISITQLAQLTGSSKSTISVMLHAIESKIVDTFYDEI”, the “soluble fraction (log2)” value is -0.216.
Consider “HMEKLNERLLYLRKNANLTQQQLADKLHISNKTISQWETGRTLPDIVMLVRLAEIYDMKLDELLNQ”, for which the “soluble fraction (log2)” value was 0.074.
Turning to “HMEKMLENIDLKAAVEALPEREKKVILLRYYRGMTQDAAAKVMKVSQVQISRIEKRAIEILREKL”, the “soluble fraction (log2)” value is -0.226.
As to “HMEKNKERIAFLKKRLEMYYEAEEKILQGQSYTIGSRTLTRTSLANVQSKIKELESEISALETRGN”, the “soluble fraction (log2)” value was -0.653.
As for “HMEKRIIMLEELKKQVYEANMELPRRGLITYTWGNVSGIDRESGNFVIKPSGVDYDKLKPEDMVVMDL”, the “soluble fraction (log2)” value was determined as 0.0555.
With “HMEKRRQEIVELVKRESEISFAELKQHFPEVSEVTLRKDLKYLDSTLQIIRIHGGAKSLPAAI”, the “soluble fraction (log2)” value is -0.582.
With “HMEKTTTLFDETTNPGIIYIGKAMPTGSAISEAAAVWAIKTIDTTTDTEIKWADGVTTYTKVWNNRASYSY” the figure was -1.35; with “HMEKVDAISQSILDVLKKNNGYLAVTDKSDPDEIYGLFQISKKTFKKAIGSLYRDRLISIEEEGIRLR”, -0.237; with “HMEKVTAPMPGVINSIVKNVGDTVKRGDVVLILEAMKMENEIVAPKEGKIASINVAKGASVNAGDVLFSI”, 0.197.
With “HMEKVTPEMIAEYNALAKKYNSNPEVVFKKKEIQRLKYIYSLMSEKQKETAEVFPNIPPPPPT”, the “soluble fraction (log2)” value was -0.599.
For the sequence “HMEKYNIIVDNEDNFRLDKIIALNMKDLSRTMIQEMINRGLVSVNGKITKASYKTKLNDQIEIMIED”, the “soluble fraction (log2)” value is -0.171.
Then “HMELAALKILNSPIGKIAIGTSENGLVKLDILTSGQTRAEFSDLPKAHKLALDAADQLAAYF”, with 0.113; and “HMELADNFAKLILTARESKGWTQAQLGQRMAETINVIKSAESGKPPADSVIRKFEMILGIELM”, with -0.121.
Turning to “HMELDFLRLQIITGIHSGRLSNNEILMMYDTYSQKGGNSYVSRIVNDYVDENNIKEEGKRNARK”, the “soluble fraction (log2)” value was -0.636.
Then “HMELDREALSDGLRRLSQLLAEDDIESRTLFRELAPGLKEQLGDDAVEKLAGHISRYEFEQAGALLATSG”, with -0.61; and “HMELIELTVTEEFEMARLDQFLAGHLTQSRTYIQKLIKAGQITINGNLITRVKVPVHYGDFILINIPDPE”, with -1.6.
In the case of “HMELKFIGEAVNNPKRPLIAILGGAKVSDKIGVIENLLTKADKILIGGAMMFTFLKAEGKNIGTSLVED”, the “soluble fraction (log2)” value is -0.0167.
Regarding “HMELLEVSVIIREADSTGWSAARQGMEQAAADLGAELRFLTLSQSNSAEEQRSLLAREVEGGADAVVLV”, the “soluble fraction (log2)” value is ≥ 0.43.
For “HMELNEMEAWSLVSKALRNGTYGAVEEFSRLPPTVQEAVGNPDNLRNWATSDYKAIETVIQSNFIKTY”, the “soluble fraction (log2)” value was -0.429.
“HMELNILELKSKERKISLEDHLYIKSFNFDNETNEYFYRLAFNSSKDLKNFKATINNDKTISIINFEI”: the “soluble fraction (log2)” value is -2.14.
For “HMELPVNSIRVPDVVGLSLREAMQAMTDAGVPWQSVQAKGVGFVSRQSPEAGTVTQLRRVRLELKLF”, the “soluble fraction (log2)” value is -0.00108.
Then “HMELSPVDLGERLKIARETANFTQDAAAKAVGIARTTLVSIEKGQRTARLDEIQALSRFYGVSANALLR”, with 0.0374.
For the sequence “HMELTDRQKQIIEIVKKQQPISGEKIASILGFARATLRPDFSLLTMSGILQAKPKVGYLINEE”, the “soluble fraction (log2)” value amounted to 0.158.
For “HMELVEVGDLTGLTVEQAENVLKNSNISISIDKYDESDKYEKDQIISQNPQNKKVKKGTAIHVVLSNGP”, the “soluble fraction (log2)” value was -0.181.
Then “HMEMKMGHIISKLRYESGYSQVELAEKIGITKGAVGMYETDKRKPDYDTLIKLADLFNVSTDYLLS”, with -1.31; and “HMEMNDFETLRDMYLTGKIWNVGDIVEANGVRGKVIRKGTNYLSFVDEDNKVHKAWLYDIEE”, with -0.429.
Then “HMEMSLGEKLKQARLTKNFSQEYMAEVLQISQKTYSNFENNKTKPDFSQIEEISKVLETSILEFLT”, with -0.0931.
As to “HMEMTGAHLRKKIRAKGFTFQQIADAIGESKQNLSQILSTNNIKTGTLERIAAAMGESVSYF”, the “soluble fraction (log2)” value came out at 0.167.
Consider “HMENDYTQAQFVQDLDSGVVREVIIIPNREAPTGYARVVFGDVVRELYATDIREVEALAREHGYEPTVED”, for which the “soluble fraction (log2)” value was -0.499.
Turning to “HMENFDNIFDQRLMPSLFIIRNINQAIENNNNNKFLLNSTISMKDKHWIEIHPHHLKLIISGYQT”, the “soluble fraction (log2)” value is -0.54.
Then “HMENIEVDFGVGDTVSVIGGAWKDTVGVVQAMNPNKQSLTINVELFGRETPVEISFTDVQKM”, with -0.962.
For “HMENINIRNMGIRAVEAAIISLSPDQRTFTWGATNKKLVTVPYEENPYSALAAFFKTDDGIEIYDAIEKRL”, the “soluble fraction (log2)” value is -0.881.
For “HMENNNIAFSKFLEEVDSGRVVQVEIQGNNISGTLSDGSKFKTYSPNYPDLVSKLSEKNVSIIASPV”, the “soluble fraction (log2)” value turned out to be 0.166.
As to “HMENPLVEVVVPVLNEERILKANIETLHHFLRTQPGFNFRITIADNGSTDKTQAIANDLTNSHAVIRV”, the “soluble fraction (log2)” value is -0.441.
Turning to “HMENPMIEQLKQFIEAQGLTQGQLAAKLGVSTATVNQYLQGKYKGDTAALDAKAAQLMARSREK”, the “soluble fraction (log2)” value was 0.175.
Turning to “HMENRILIPTAENIGERLDRYISSELDAPRSQVQIWIDSGLVAVSGGLKPKNYRLREGDEIEVTIPDPV”, the “soluble fraction (log2)” value was -0.0637.
“HMENRLREVRDEIATRHGILPTVFINDRVLMNIHSKKPKDVSQLWQVDGISDEFIMKYGPEFIAEYKKKAK”: the “soluble fraction (log2)” value is -0.59.
